Where no end group is shown, it is not given here. The star is where a group is joined. Biotin = O=C1N[C@H]2[C@H](CS[C@H]2CCCCC(=O)*)N1
T1: Peptide 3: Biotin-ATNMDSSHSIT (human)
T1 peptide: Biotin-ATNMDSSHSIT

B1: Negative control peptide: Biotin-AVEDRKPSGLN (peptide)
peptide: Biotin-AVEDRKPSGLN
B2: VB1-008 monoclonal antibody (antibody, human IgG1, V domains shown)
VH: QVQLQELGPRLVRPSQTLILTCTVSGGSVSGDEYYWSWLRQTPGKGLEWIGYMSYRGSSYYSPSLQSRVTIAVDRSKNEFSLKLTSVTAADAAVYFCARKYCGGDCRSGFDIWGRGTMVTVAS
VL: YELTQPPSVSVSPGQKAFITCSGDNLGNKYVCWYQQKPGQSPVLVIYEDTKRPSGIPERFSASNSGNTATLTISGTQPIDEADYYCQAWDSRTEIFGTGTKVTVLS
notes: also called 17P2/C12
B3: Peptide 1: Biotin-STDRIPATNMD (peptide)
peptide: Biotin-STDRIPATNMD

Assays:
[1] = target: B2; experiment: peptide competition, flow cytometry on MDA-MB-435S cells
[2] = target: T1, Peptide 3: Biotin-ATNMDSSHSIT; experiment: ELISA on peptide-coated plates, 75 µg/mL VB1-008
[3] = target: B3; experiment: ELISA on peptide-coated plates
[4] = target: B1; experiment: ELISA on peptide-coated plates

B1: no binding [1].

B2: binds [2]; no binding (tested: 75 µg/mL VB1-008) [3]; no binding (tested: 75 µg/mL VB1-008) [4].

B3: no binding [1].
